Results published in publication PMC3469465, “Muscle-Specific Splicing Factors ASD-2 and SUP-12 Cooperatively Switch Alternative Pre-mRNA Processing Patterns of the ADF/Cofilin Gene in Caenorhabditis elegans”.

T1: FLAG-SUP-12 (Caenorhabditis elegans, UniProt O45189 1-248)
T1 sequence: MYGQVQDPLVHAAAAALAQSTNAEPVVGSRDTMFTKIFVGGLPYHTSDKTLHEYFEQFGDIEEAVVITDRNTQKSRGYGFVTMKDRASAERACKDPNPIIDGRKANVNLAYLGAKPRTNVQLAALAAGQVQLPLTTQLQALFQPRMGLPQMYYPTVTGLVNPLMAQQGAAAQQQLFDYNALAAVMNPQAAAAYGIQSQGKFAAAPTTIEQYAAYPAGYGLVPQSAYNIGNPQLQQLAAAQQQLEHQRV


Key:
FLAG-SUP-12 [1] = biological target: T1, FLAG-SUP-12; test: EMSA; 20 mM HEPES-KOH pH 7.9, 150 mM KCl, 5% glycerol (EMSA only), 1% Triton X-100, 1 mM DTT, 0.1 mM PMSF, 100 ng/ul E. coli tRNA, 50 ng/ul BSA, 30 min, 20 C; conditions: protein: recombinant; tags: FLAG; label: 32P (alpha-32P UTP, internal)
FLAG-SUP-12 [2] = biological target: T1, FLAG-SUP-12; test: EMSA; similar extent to WT; 20 mM HEPES-KOH pH 7.9, 150 mM KCl, 5% glycerol (EMSA only), 1% Triton X-100, 1 mM DTT, 0.1 mM PMSF, 100 ng/ul E. coli tRNA, 50 ng/ul BSA, 30 min, 20 C; conditions: protein: recombinant; tags: FLAG; label: 32P (alpha-32P UTP, internal)

| Binder | binding result (FLAG-SUP-12 [1]) | binding result (FLAG-SUP-12 [2]) |
| --- | --- | --- |
| GGGAGACUAACCUAACCUAACCUAUGUGUGCCUGUUUUCUAG (ssRNA) [unc-60 intron 1A WT EMSA probe] | binds | – |
| GGGAGACAAACCAAACCAAACCUAUGUGUGCCUGUUUUCUAG (ssRNA) [unc-60 intron 1A M1 EMSA probe] | – | binds |
